What was measured:
[1] = molecular target: T1, GST-SAS-6(∆N) (C. elegans, UniProt O62479 171-492); assay: bead recruitment assay; GST-SAS-6 FL or truncations coupled to agarose beads; recruitment of mCherry-His tagged SAS-6 C-terminus seen by fluorescence (Fig. 5B, 5E); details: both partners purified
T1 construct: SAS-6, C. elegans, N-terminal head domain deleted (∆1–170), so residues 171-492; also called GST-SAS-6-ΔN; source: E. coli BL21 (DE3), purified (Glutathione Sepharose 4B); not shown: GST, N-terminal, kept
T1 sequence (looked up): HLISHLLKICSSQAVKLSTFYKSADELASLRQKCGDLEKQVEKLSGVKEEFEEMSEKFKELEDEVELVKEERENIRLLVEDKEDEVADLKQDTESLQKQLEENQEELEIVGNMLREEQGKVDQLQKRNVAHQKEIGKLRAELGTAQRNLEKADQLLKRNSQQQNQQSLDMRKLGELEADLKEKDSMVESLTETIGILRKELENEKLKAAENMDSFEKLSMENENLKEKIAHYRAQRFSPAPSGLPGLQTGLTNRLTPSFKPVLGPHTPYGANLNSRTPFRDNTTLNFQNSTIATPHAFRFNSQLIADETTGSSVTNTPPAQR

[2] = molecular target: T2, GST-SAS-6 full-length (FL) (C. elegans, UniProt O62479 1-492); assay: pull-down; GST pulldown of purified His-tagged SAS-6 proteins by purified GST-SAS-6 FL or truncations, with or without pre-phosphorylation by CDK1; α-His immunoblot and CBB staining (Fig. 5A, 5C, 5D); details: both partners purified
T2 construct: SAS-6, C. elegans, full length (1-492); pGEX6P1-GST vector; also called full-length SAS-6 coupled to beads; source: E. coli BL21 (DE3), purified (Glutathione Sepharose 4B); not shown: GST, N-terminal, kept
T2 sequence (looked up): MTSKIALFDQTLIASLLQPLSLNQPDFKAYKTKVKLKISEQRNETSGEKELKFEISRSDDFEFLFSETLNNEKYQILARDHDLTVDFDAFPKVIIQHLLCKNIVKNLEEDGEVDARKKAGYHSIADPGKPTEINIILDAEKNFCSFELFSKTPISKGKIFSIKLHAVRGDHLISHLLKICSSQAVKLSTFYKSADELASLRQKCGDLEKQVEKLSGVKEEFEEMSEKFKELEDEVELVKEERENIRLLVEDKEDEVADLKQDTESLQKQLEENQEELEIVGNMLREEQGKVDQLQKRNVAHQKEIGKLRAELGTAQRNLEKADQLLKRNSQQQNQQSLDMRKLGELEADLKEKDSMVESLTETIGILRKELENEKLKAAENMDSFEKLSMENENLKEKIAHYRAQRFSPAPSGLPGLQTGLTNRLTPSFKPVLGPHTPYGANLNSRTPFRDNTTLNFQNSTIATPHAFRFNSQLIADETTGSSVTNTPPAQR

binding result [1]: binds
binding result [2]: binds
B1: SAS-6-C-mCherry-His (domain or fragment, C. elegans, UniProt O62479 401-492, looked up)
chain: HYRAQRFSPAPSGLPGLQTGLTNRLTPSFKPVLGPHTPYGANLNSRTPFRDNTTLNFQNSTIATPHAFRFNSQLIADETTGSSVTNTPPAQR
notes: SAS-6, C. elegans, C-terminal unstructured region, residues 401-492; Cloned in pET.28a-mCherry; the primer's vector part encodes LFQGP before the NdeI site, so a further N-terminal tag may be there; also called mCherry-His tagged SAS-6 C-terminus; SAS-6 C-terminus; source: E. coli BL21 (DE3), purified (Ni-NTA); not shown: mCherry, C-terminal, kept; His, C-terminal, kept

Reference: paper PMC12238530, “Dynamic SAS-6 phosphorylation aids centrosome duplication and elimination in C. elegans oogenesis” (EMBO Reports, 2025)
